In patent US20230322944A1 (published 2023):
Changes are numbered by the printed parent chain.

T1: cynomolgus and/or rhesus monkey CD122 His tag (rhesus monkey, UniProt Q38J85 27-240 (cynomolgus entry))
T1 construct: also called rhesus CD122; rhCD122
T1 sequence: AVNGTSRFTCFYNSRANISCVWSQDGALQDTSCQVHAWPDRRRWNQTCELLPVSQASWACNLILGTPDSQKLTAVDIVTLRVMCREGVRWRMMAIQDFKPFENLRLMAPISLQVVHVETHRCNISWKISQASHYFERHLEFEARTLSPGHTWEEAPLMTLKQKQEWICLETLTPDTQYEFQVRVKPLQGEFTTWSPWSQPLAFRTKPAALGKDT

T2: human CD122 His tagged (human, UniProt P14784 27-240)
T2 construct: also called hCD122
T2 sequence: T1 sequence with R7Q, T66A, A74T, M83L, M92V, K127E, M158L

B1: FAB03 (Fab, V domains shown)
VH: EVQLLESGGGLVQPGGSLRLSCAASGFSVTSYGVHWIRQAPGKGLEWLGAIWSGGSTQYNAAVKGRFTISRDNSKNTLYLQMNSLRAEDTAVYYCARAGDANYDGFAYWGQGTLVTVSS
VL: DIQMTQSPSSLSASVGDRVTITCQASSSVSFMYWYQQRPGKAPRLLIYDTSNLASGVPSRFSGSGSGTSYTFTISSLQPEDIATYYCQQWDTYPLTFGQGTKVEIK
notes: F11VH-1 + F11VK-123; Human monovalent Fab
B2: FAB09 (Fab, V domains shown)
VH: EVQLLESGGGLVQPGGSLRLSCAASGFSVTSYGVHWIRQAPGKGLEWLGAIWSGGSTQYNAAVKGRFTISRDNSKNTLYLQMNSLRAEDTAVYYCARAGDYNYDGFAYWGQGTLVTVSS
VL: B1 VL
notes: F11VH-13 + F11VK-123; Human monovalent Fab
B3: FAB12 (Fab, V domains shown)
VH: EVQLLESGGGLVQPGGSLRLSCAASGFTVTSYAVHWVRQAPGKGLEWLGVIWSGGSTDYNAAFISRLTISKDNSKNTVYFQMNSLRAEDTAVYYCARAGDYNYDGFAYWGQGTLVTVSS
VL: B1 VL
notes: F11VH-23 + F11VK-123; Human monovalent Fab

Biological target: T1, cynomolgus and/or rhesus monkey CD122 …
Assay: BIACORE SPR, Fab on rhesus CD122
Protocol: (§1) A mouse anti-human antibody (CH1 specific) was immobilized on a CMS Sensor Chip to a level of 2000 RU in acetate buffer at pH 4.5 using amine coupling following the Wizard instructions for two channels. One channel was used for background signal correction. The standard running buffer HBS-EP pH 7.4 was used. Regeneration was performed with a single injection of 10 μl of 10 mM Glycine at pH 1.5 at 20 μl/minute. IgG samples were injected for 2 minutes at 50 nM at 30 μl/min followed by and off-rate of 60 seconds. The monomeric antigen (human CD122 His tagged or cynomolgus and/or rhesus monkey CD122 His tag) was injected in two fold serial dilutions from 100 nM down to 3.1 nM, for 2 minutes at 30 μl/min followed by an off-rate of 300 seconds. The obtained sensorgrams were analyzed using the BIACORE® 3000 evaluation (BIAevaluation) software. The KD was calculated by simultaneous fitting of the association and dissociation phases to a 1:1 Langmuir binding model.

Kd	Binder
20.6 nM	B1
36.5 nM	B2
19.5 nM	B3

Biological target: T2, human CD122 His tagged
Assay: BIACORE SPR, Fab on human CD122
Protocol: as §1

Kd	Binder
38.6 nM	B1
72.5 nM	B2
21.8 nM	B3
